Experimental data from paper PMC5662769, “A-ZIP53, a dominant negative reveals the molecular mechanism of heterodimerization between bZIP53, bZIP10 and bZIP25 involved in Arabidopsis seed maturation” (Scientific Reports, 2017).

T1: bZIP25 DNA binding domain and leucine zipper region (V230-S322) (Arabidopsis thaliana (Mouse-ear cress), UniProt Q9M1G6)
T1 chain: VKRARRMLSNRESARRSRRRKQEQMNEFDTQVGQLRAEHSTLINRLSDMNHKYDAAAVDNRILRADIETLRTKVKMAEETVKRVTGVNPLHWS

B1: bZIP39 DNA binding domain and leucine zipper region (V351-L442) (protein)
chain: VEKVVERRQRRMIKNRESAARSRARKQAYTVELEAELNQLKEENAQLKHALAELERKRKQQYFESLKSRAQPKLPKSNGRLRTLMRNPSCPL
B2: bZIP53 DNA binding domain and leucine zipper region (Y18-D116) (domain or fragment, Arabidopsis thaliana, UniProt Q9LZP8 18-116, looked up)
chain: YATVTDERKRKRMISNRESARRSRMRKQKQLGDLINEVTLLKNDNAKITEQVDEASKKYIEMESKNNVLRAQASELTDRLRSLNSVLEMVEEISGQALD
notes: An internal HindIII site of the amplicon was destroyed by site-directed mutagenesis; Measured monomer mass 12957 Da; In the protoplast reporter assays the full-length protein was expressed from a plasmid; also called basic leucine zipper 53; source: E. coli BL21 (DE-3), HPLC purified
B3: bZIP25 DNA binding domain and leucine zipper region (V230-S322) (domain or fragment, Arabidopsis thaliana, UniProt Q9M1G6 230-322, looked up)
chain: T1 chain
notes: In the protoplast reporter assays the full-length protein was expressed from a plasmid; source: E. coli BL21 (DE-3), HPLC purified

Legend:
[1] = CD thermal denaturation; protein alone, 2 µM dimer, ellipticity at 222 nm, heated from 6–85 °C, two-state fit; KD at 25 °C calculated from ΔGDi; dimer to monomers; details: other: CD thermal denaturation
[2] = target: bZIP10 DNA binding domain and leucine zipper region (V216-S301) (Arabidopsis thaliana); assay: as above
[3] = target: bZIP10 DNA binding domain and leucine zipper region (V216-S301) (Arabidopsis thaliana); assay: native MS; ESI-MS in unbuffered MS grade water, 2 µM homodimer, 4 µM heterodimer mixtures, samples kept at 23 ± 2 °C, ion spray interface temperature switched off, declustering potential 10 V
Q9SJN0 = assay: CD thermal denaturation; protein alone, 2 µM dimer, ellipticity at 222 nm, heated from 6–85 °C, two-state fit; KD at 25 °C calculated from ΔGDi; dimer to monomers; details: other: CD thermal denaturation
Q9LZP8 = assay: as above; details: other: CD thermal denaturation
[4] = target: the molecule itself; assay: as above
[5] = target: the molecule itself; assay: native MS; ESI-MS in unbuffered MS grade water, 2 µM homodimer, 4 µM heterodimer mixtures, samples kept at 23 ± 2 °C, ion spray interface temperature switched off, declustering potential 10 V
[6] = target: T1, bZIP25 DNA binding domain and leucine …; assay: CD thermal denaturation (222 nm) of equimolar mix versus sum curve, plus ESI-MS; absence of DNA; the paper concludes heterodimerization is DNA-mediated (synergistic reporter activation in protoplasts)
Q9M1G6 = assay: CD thermal denaturation; protein alone, 2 µM dimer, ellipticity at 222 nm, heated from 6–85 °C, two-state fit; KD at 25 °C calculated from ΔGDi; dimer to monomers; details: other: CD thermal denaturation

Molecule | dH (ΔHm, at Tm) [1] [kcal/mol] | Kd [4] [nM] | stoichiometry N [5] | further results
bZIP10 DNA binding domain and leucine zipper region (V216-S301) | -41.1 |  |  | 
bZIP10 DNA binding domain and leucine zipper region (V216-S301) (domain or fragment) |  |  |  | Kd [2]: 3 nM; stoichiometry N [3]: 2
bZIP72 DNA binding domain and leucine zipper region (D48-T150) | -57.3 |  |  | 
B1 |  |  |  | dH (ΔHm, at Tm) (Q9SJN0): -43.2 kcal/mol
B2 |  | 50 | 2 | dH (ΔHm, at Tm) (Q9LZP8): -35.5 kcal/mol; binding result [6]: no binding
B3 |  | 0.05 | 2 | dH (ΔHm, at Tm) (Q9M1G6): -55.3 kcal/mol
